Source: the DeepSol protein solubility set

Assay: soluble on expression in E. coli; label from the status in PepcDB or PDB records

Question: For “MGSDKIHHHHHHMKSMWCIHDRIFLKKTREVFDVDIKAYKERVEKAVEYLKGQIDETPEIAIILGSGLSVIADEVEKEGTSKKIPYSEIPGFPISTAPGHKGELIFGKLFGKNVMLMNGRFHYYEGYSMKEVTFPIRVMQLLGVEILIVTNAAGGLNPDFEVGRPMIITDHINFMGDNPLIGPNVDEWGPRFPDMSEPYDKELIELAYNSARELGIPVYQGVYVAVTGPCFETPAELRMLRKFGADAVGMSTVPEVIVARHGQIRVLGISAITDRAVPEDLKPLTAEEVLEVAEKTGRKIAQIIFEVVRKL”, which “soluble on expression in E. coli” value is on record?
Answer: Its value is “not soluble”.

Question: For “MGSDKIHHHHHHMKSPQELRNKLFRYWRQPGLRLRQLLDQAAWPLVLSIGKPTAQVFSSQVAMVQKHVEAWREVSVGKVEWKRIGYRSGADLVSIPTQWCLRSPTEWITAMSNEEISAQYMSLEHLVEHLPAVYRRLIITRPSLWKNKRSEEVIQVAGLAQRLSPGCAQGLPLRLLSGYGVDTKFFERNELLLSKMLDVRYEGEASRQGLCDFLDAYDDTSHWVLLAPLEAGLLPFKRQLVTTSELGRASLPGTRLLIVENQKCLHLLRELPGTIAILGCGSDLAWLGSAQLHGKSIAYWGDVDTWGMRMLARARSRFNAVIPLLMTATVFDAHSDFTVPEPIRAQDTPPADLTPSETALFKRLVQCSRGRLEQEFISREVVWAALEEWIQRRRG”, which “soluble on expression in E. coli” value is on record?
Answer: Its value is “not soluble”.

Question: With “MGSDKIHHHHHHMKTIKGPAIFLAQFMSDVAPFNNLKNICDWAASLGYKGVQIPSWDVRCIDLQKAAESKTYCDEIKAVVHAAGLEITELTSHLQGQLVASHAAYDAAFDVFAPAAIHNNPKARAEWATQQLMYAAKASQNLGLTAHATFSGALLWHTMYPWPQRKAGSVEEGFTELAKRWLPILNAFDQAGVDLCYEIHPGEDLHDGITFERFLKATDNHSRAHILYDPSHFVLQQLNYLDYIDIYHEHIKMFHVKDAEFNPSGRAGVYGGYQDWIDRPGRFRSLGDGQVNFKAIFSKLTQYDFPGWAVLEWECCLKHPEDGAREGAAFIKNHIIRVADKAFDDFAG” as the sequence, how does the “soluble on expression in E. coli” value read?
Answer: Its value is “not soluble”.

Question: For “MGSDKIHHHHHHMKTKLILVGGFLGVGKTTLLGEAARRLSQTGRKVGLITNDQASELVDTVYLEQTGTEVSEVSGSCFCCNFPGFMEAIDHVNAHKPADIIIAEPVGSCTDLSATILQPLKEKFADKLSVAPLSVLVDPRQLTDILDGRTAGLHPSAAYILRKQLEEADLIVINKTDLLTPLAVEILKKRTAEEWPLASVYAISAKTGEGLAAWLHEAQQRSGAGTHLAEVDYDTYAEGEAVLGWLNATIELQSQGADWDTLGRNLLNSLRSRFGSLNAAIGHVKLLIATDQGYVIGNITGAKDSLDIRESAGTGRKAQLTLNARVQMEPDLLEEIVKEEIAKVQADKITATIAVLKCLKPGRPNPTYRYGTIVG”, which “soluble on expression in E. coli” value is on record?
Answer: Its value is “not soluble”.

Question: For “MGSDKIHHHHHHMKTMRKILEIDEERCNGCGLCVLDCAEGAIAIVDGKAKIVSDSFCDGLGACIGSCPQDALHIIEREAVPFDEEAAMEHVRSQGGTPEANHGHGHGAGTPHRHGQSAEHGGHGRIPGHGGCPGAAMRRFDSAESPAFAVAEGTVKGPGHWPLKIRLVPPTAPFLKGADVLVAADCAAAASPIFHSHFAAGKVVLIGCPKFDDTEAYAERLADILRVSGIASLTVLRMEVPCCRGLSAAAEKARVLSGTSLVLKEVIMTCAGGPAAPAPLSSL”, which “soluble on expression in E. coli” value is on record?
Answer: The value was “not soluble”.

Question: Which “soluble on expression in E. coli” value does the source give for “MGSDKIHHHHHHMKTYMISLHGAYENENFGDELLIAIQAKWINDEGYDVCLPFASKVYREQIPSLDKEGSRGLEESEKLIYTGGGYFGEPNHKTFKWGINFFRKKHHIPAKIFKKNNKKYLICGVGAGPITNPITRYTVVKICNFAEKVVVRDTTSYDYLIKYGVIPEKIQVGADVVLSLTIHDLPKGSIEKAKKTLNKDNKNFYLGIHIGVSPDDENYKTNVKAAMESLANVIKRNSVVPVLIADKRNATSTQEKAIEYMSSLLDEEPIVYRHSNIWETCAFLSSLDGVVTTKLHVGITAYTLGTRTFGIAAHQKTRRFYNQIKKENYFYELKEVDNGIESSLELFIKDRYWDEETLQAKKELNERALLCKREMLQFLES” here?
Answer: Its value is “not soluble”.

Question: Which “soluble on expression in E. coli” value does the source give for “MGSDKIHHHHHHMKTYTSNHIVFFSPTHTSAKIARAIGESIGMGRRIEIDLTTDENSSPIEIKDSITIIAVPVYAGRVAPIALQRLRRLKGNNAPAILVAVYGNRDYEDALVELRDETIQLGFTPLAAGAFIGEHSYSRPNMPIAEGRPDVTDLQIAEQFGKDCLTKLEKDETLSDFYLKGNIPYRFVGPSTPAAPVCTEECFACGECIEVCPTHAIALSDEGKIETEITKCIKCCACVKECPNGARVFDTPYTPMLHQKCAARREPELFI” here?
Answer: Its value is “not soluble”.

Question: With “MGSDKIHHHHHHMKVGVALSGGVDSAVALYLLLKEGHEVKAFHMKTKEDEFFIKKEIKKKVCCSPSDTADAMRIAHFLGVEIEIVDVKEIFREKVIEPFKRDLLKGLTPNPCAHCNRFVKFGYLMDYVLNQGFDAFASGHYARIEFSEKYGRKVIKKGVDLKKDQSYFLARIEPWRIERLIFPNGIYTKEEIRKIAEEAGIHVAKKQESQDVCFIPDGSIENFLKDEGITLKDGDIITPEGEVVGRHFGYPLYTIGQRKGFKIEKFGRRYYVRGKIPEKNVVVVSDLEDVFFSGLIAEDPVWHVEVPEEFRCVCRVRKKSEEAPAVVKVKDNEVEVSFEKKVFAVTPGQIAAFYDGDTLLGGAIIKEGIR” as the sequence, how does the “soluble on expression in E. coli” value read?
Answer: Its value is “not soluble”.

Question: For “MGSDKIHHHHHHMKVLELKNVSVRYKTGEKTVNAVENVSFHLEKGETLGLVGESGCGKSTLGFSIMRLLPKGTKIDGSIKIEGIDISSLSDEEMRQIRGSKVAMIFQDPMTSLNPILRIEDHFVEMILTHRPELSKEDARELAAKALEDVGINRNRLKDYPFQFSGGMRQRVMIALSIVLNPAVLIADEPTTSLDVIVQAQIMELLEKLTKEHRTAMILITHDMGLVAEAADRIGVMYAGHLVELASKERIFTNPLHPYTVGLLRSIPNTDVNDKELRYIPGSPPDLSNPPEGCRFAPRCEKAMKICWEKEPPEFEIDGTRVKCWLYGGDQNGTD”, which “soluble on expression in E. coli” value is on record?
Answer: Its value is “not soluble”.

Question: With “MGSDKIHHHHHHMKVLHVNAGLENGGGLSHIVNLLTEAKRENKDFDLLTLADGPVAAAAREHGINTYVLGAKSRYNLASLKKLIKFINDGHYDIVHTHGARANLFLSLIHKRISAVWCVTVHSNPYLDFEGRGFLGKVFTKFNLRALKKADCIFAVTKRFANLLVNQTQLDKNKVHVIYNGIFFHNDSEIPAKYEHTYFNVINVARTEKVKGQELLLKAVKKLNDQHIRLHIAGDGSQLEPLKALTRQLNMAPQVTFHGFMTHHQLSGLYKRIDLAVLTSYSESFPLVLLEATDNLIPILSTDVGDIHKMIPGPKYGFIAKTGDIDSIAKQLELAVNKTTKQLREMAYTEKRYAEEHFSVKNQLADIEKVYSTLI” as the sequence, how does the “soluble on expression in E. coli” value read?
Answer: Its value is “not soluble”.

Question: With “MGSDKIHHHHHHMKVLIVGGSGGIGQAMVKQVQETYPDATVHATYRHHLPNDRQNNIQWHALDVTNEAEIKQLSEQLTELDWLINCVGILHTQDKGPEKSLQSLDIDFFQHNLTLNTLPSVMLAKHFCHALKQSDSARFAVISAKVGSITDNRLGGWYSYRASKAALNMFLKTLAIEWQRNMKHCVVLSLHPGTTDTPLSQPFQQSVPKGKLFTPEYVANCLLPIIANATPAQTGCFFAYDGTELPW” as the sequence, how does the “soluble on expression in E. coli” value read?
Answer: Its value is “not soluble”.

Question: Which “soluble on expression in E. coli” value does the source give for “MGSDKIHHHHHHMKVLLINGSPNQYGCTYTALNEITKVLSKHDIKTEILYLGKETIPGCISCASCFETGKCIRNDKVNELIEDLDNIDGIIIGSPVYFSSATGQLTSFLDRLFFIAGSRMATKLGASVVSCRRGGASATFDQLNKYFSISNMPIVSSQYWNQVHGFTPEDVMKDEEGLQTMRTLGENMAWLLKCISAGKKAGIKEPQYEETIMTNFIK” here?
Answer: Its value is “not soluble”.

Question: For “MGSDKIHHHHHHMKVRIRDFIETTEGLYFAVNTYAHPKNKFFAFLRYVPYEFVDFKIEDNNIREINGRKYIKMAESKIAYKFLEEKFSKYLYYDETINVLMHAIPKEDVKRILRPKERLNEIINEENNLNELEEKCRKLALILEDYGVPIKSMGVSGSLLLKLNNKNSDIDFVIYGKDMHKKAREALKQAFEDNKLKPLSDDFWKIAYKKRIKDKTLTYEEFVFYEKRKYNRGIVDNTMFDLLFTREWDEITEKYGDKRYKNLGFAKIEGRVLNDDFAFDNPAVYKIECYNDEDIKEVVSFTHTYAGQCFNGEEIVARGKLEEVIDKSGERYKRIVVGTTREAFNEYIKIKR”, which “soluble on expression in E. coli” value is on record?
Answer: The value was “not soluble”.

Question: For “MGSDKIHHHHHHMKVSDIMTPDPITYHVPSSINEVIKVLIKYNVTGVPITDQSGHYAGFVSRRDVFANPRETQTAMVMRRSKAVYEDDEVRTAALEMLAQKKRHLTVVDRDGHVKGILTPQNFMKTIKENYGNVKVKEVMKETSVPIWYKTPLPAILTVMNVSGIFSFPVIDDNGTFVGLLVDRDIFDRIDLKFDSILSEMGIADDEDPWSWTGLRNVFKYVVERADIKLPKISADEIMVKNPTVVYANDKLSTAAELMIKYNYNQLPVLDDSHGIYGMLYDIEMLGVFQ”, which “soluble on expression in E. coli” value is on record?
Answer: Its value is “not soluble”.

Question: For “MGSDKIHHHHHHMKVSGGEVPPFFKEGFFFTSEELTHLINVCSSTSAIISVLKDSKYRRSLVLYLKRPLSKDALLLIQTLLTTLEREDLSFGVKELEYMAYHDPLTGLPNRRYFFELGNRYLDLAKREGKKVFVLFVDLAGFKAINDTYGHLSGDEVLKTVSKRILDRVRRSDVVARYGGDEFTILLYDMKEEYLKSLLERILSTFREPVRVENKHLSVTPNIGVARFPEDGENLEELLKVADMRMYKAKEMKVPYFSLS”, which “soluble on expression in E. coli” value is on record?
Answer: Its value is “not soluble”.

Question: For “MGSDKIHHHHHHMKYEIVLKGSYALLKVFLSTGESVVVEPGAMVYMKGPIEVKTSATGGVWKALKRAILGGENFFMNTYISRGESEIGLAPQLPGDIDVIPLKDILYVQSTSFLACDPSVEMDVSFGGLKSFFSGEGIFLLKFIGHGDVAVSSFGGIKSVELQPGEEFTVDTGHVVAFDGTVKWNVRTFGGLKSTLFGGEGLVCTFTGPGRVYIQTRNYPAFVEWIKSLVPRQTGSR”, which “soluble on expression in E. coli” value is on record?
Answer: The value was “not soluble”.

Question: For “MGSDKIHHHHHHMLDLLNLPGIKPVDMRHESKGLVIVAEPETVEVPLCGGCNTLMHKHGTRKNKFMDTPLYMEPVRLEVQRPRFRCESCGKMSMPELSFLDDKRRATKRLVDVIRQQCLGTTFHALAEQTGVAVNTVKNIAHDLINELSQTVRYETPVIMGIDEVNLAGGYRCVITNLATNNVFDMLEHRTQEHLKPFFKALPDADKVEWVCTDMWRPFKRSFAQYLPNAKLVIDKFHVVKMASEALEVERKNYQAQLSKEDRIYVKKSIRWLTLKRPGNLTPAEQKALEVVKQAIPELAVAYDFKEAFFCIYDELDKQNAQNAFEAWENSLPDQGLVAFKKLAKTVHNHYDDIFAYWDAPFSITNGYTEGLNGLIKMSNRLGRGYGYPIIRAKTLYSKEARKVGSGIRAGHGKVEYGPHIPTLLKQAESGELD”, which “soluble on expression in E. coli” value is on record?
Answer: The value was “not soluble”.

Question: For “MGSDKIHHHHHHMLDVHKDIKKIFHEEQVLAEAAARYGFSKDQVRFLADAENYVYECMKDNQPYILKITHTIRRSSDYMMGEMEWLRHLAIGGISVAKPLPSLNGKDVEAVPDGNGGSFLLRVYEKAPGQKVDESDWNETLFYELGRYTGSMHSLTKSYKLSNPAFKRAAWAEEEQLKLRKYVPEDQIKVFQQADSLMNELRRLPKSQDNYGLVHADLHHGNFNWDHGKITAFDFDDIGYNWFVNDISILLYNVLWYPVVPYDDKAAFTEEFMTHFMKGYWEENELDPAWLMIIPDFLRLRHMLIYGLLHQMFDLNTIGEEEKEMLAGFRRDIENGTPITAFDFSALV”, which “soluble on expression in E. coli” value is on record?
Answer: The value was “not soluble”.
